# From patent publication US20250388881A1, “METHOD FOR IMPROVING THERMOSTABILITY OF PHYTASE, MUTANT AND USE” (priority 2022, published 2025)
# Tests used:
# [1] = system: O=P(O)(O)O[C@H]1[C@H](OP(=O)(O)O)[C@@H](OP(=O)(O)O)[C@H](OP(=O)(O)O)[C@@H](OP(=O)(O)O)[C@H]1OP(=O)(O)O; assay: Determination of dynamic parameters on sodium phytate: mutant A57C/A103C; type: biochemical, Yersinia intermedia; settings: other: A57C/A103C, 37° C., pH 5.5, sodium phytate 0.05 to 1.00 mM
# [2] = system: O=P(O)(O)O[C@H]1[C@H](OP(=O)(O)O)[C@@H](OP(=O)(O)O)[C@H](OP(=O)(O)O)[C@@H](OP(=O)(O)O)[C@H]1OP(=O)(O)O; assay: Determination of dynamic parameters on sodium phytate: mutant R271C/E413C; type: biochemical, Yersinia intermedia; settings: other: R271C/E413C, 37° C., pH 5.5, sodium phytate 0.05 to 1.00 mM
# [3] = system: O=P(O)(O)O[C@H]1[C@H](OP(=O)(O)O)[C@@H](OP(=O)(O)O)[C@H](OP(=O)(O)O)[C@@H](OP(=O)(O)O)[C@H]1OP(=O)(O)O; assay: Determination of dynamic parameters on sodium phytate: mutant G101C/V116C; type: biochemical, Yersinia intermedia; settings: other: G101C/V116C, 37° C., pH 5.5, sodium phytate 0.05 to 1.00 mM
# [4] = system: O=P(O)(O)O[C@H]1[C@H](OP(=O)(O)O)[C@@H](OP(=O)(O)O)[C@H](OP(=O)(O)O)[C@@H](OP(=O)(O)O)[C@H]1OP(=O)(O)O; assay: Determination of dynamic parameters on sodium phytate: mutant G365D; type: biochemical, Yersinia intermedia; settings: other: G365D, 37° C., pH 5.5, sodium phytate 0.05 to 1.00 mM
# [5] = system: O=P(O)(O)O[C@H]1[C@H](OP(=O)(O)O)[C@@H](OP(=O)(O)O)[C@H](OP(=O)(O)O)[C@@H](OP(=O)(O)O)[C@H]1OP(=O)(O)O; assay: Determination of dynamic parameters on sodium phytate: mutant E282L; type: biochemical, Yersinia intermedia; settings: other: E282L, 37° C., pH 5.5, sodium phytate 0.05 to 1.00 mM
# [6] = system: O=P(O)(O)O[C@H]1[C@H](OP(=O)(O)O)[C@@H](OP(=O)(O)O)[C@H](OP(=O)(O)O)[C@@H](OP(=O)(O)O)[C@H]1OP(=O)(O)O; assay: Determination of dynamic parameters on sodium phytate: mutant R353C/L401C; type: biochemical, Yersinia intermedia; settings: other: R353C/L401C, 37° C., pH 5.5, sodium phytate 0.05 to 1.00 mM
# [7] = system: O=P(O)(O)O[C@H]1[C@H](OP(=O)(O)O)[C@@H](OP(=O)(O)O)[C@H](OP(=O)(O)O)[C@@H](OP(=O)(O)O)[C@H]1OP(=O)(O)O; assay: Determination of dynamic parameters on sodium phytate: phytase APPAmut4; type: biochemical, Yersinia intermedia; settings: other: APPAmut4, 37° C., pH 5.5, sodium phytate 0.05 to 1.00 mM
# [8] = system: O=P(O)(O)O[C@H]1[C@H](OP(=O)(O)O)[C@@H](OP(=O)(O)O)[C@H](OP(=O)(O)O)[C@@H](OP(=O)(O)O)[C@H]1OP(=O)(O)O; assay: Determination of dynamic parameters on sodium phytate: mutant G65R; type: biochemical, Yersinia intermedia; settings: other: G65R, 37° C., pH 5.5, sodium phytate 0.05 to 1.00 mM
# [9] = target: Yersinia intermedia phytase APPAmut4 (parent), SEQ ID NO: 1 (Yersinia intermedia, UniProt Q000T0, A346L/M382L/V109D/Y74E); assay: Determination of dynamic parameters on sodium phytate: phytase APPAmut4; type: biochemical; settings: 37° C., pH 5.5, sodium phytate 0.05 to 1.00 mM
# [10] = target: Yersinia intermedia phytase APPAmut4 (SEQ ID NO: 1) mutant A147C/Y268C (Yersinia intermedia, UniProt Q000T0, A170C/A346L/M382L/V109D/Y291C/Y74E); assay: Determination of dynamic parameters on sodium phytate: mutant A147C/Y268C; type: biochemical; settings: 37° C., pH 5.5, sodium phytate 0.05 to 1.00 mM
# [11] = target: Yersinia intermedia phytase APPAmut4 (SEQ ID NO: 1) mutant G65R (Yersinia intermedia, UniProt Q000T0, A346L/G88R/M382L/V109D/Y74E); assay: Determination of dynamic parameters on sodium phytate: mutant G65R; type: biochemical; settings: 37° C., pH 5.5, sodium phytate 0.05 to 1.00 mM
# [12] = system: O=P(O)(O)O[C@H]1[C@H](OP(=O)(O)O)[C@@H](OP(=O)(O)O)[C@H](OP(=O)(O)O)[C@@H](OP(=O)(O)O)[C@H]1OP(=O)(O)O; assay: Determination of dynamic parameters on sodium phytate: mutant A147C/Y268C; type: biochemical, Yersinia intermedia; settings: other: A147C/Y268C, 37° C., pH 5.5, sodium phytate 0.05 to 1.00 mM
molecule,measurement,setting,value
Yersinia intermedia phytase APPAmut4 (SEQ ID NO: 1) mutant A57C/A103C (Yersinia intermedia; A126C/A346L/A80C/M382L/V109D/Y74E),Km,[1],180 ± 30 µM
same,Vmax,[1],2840 µmol/min/mg
same,kcat,[1],2160 ± 130 s⁻¹
same,kcat/Km,[1],1.21e+07 ± 1.37e+06 M⁻¹ s⁻¹
Yersinia intermedia phytase APPAmut4 (SEQ ID NO: 1) mutant R271C/E413C (Yersinia intermedia; A346L/E436C/M382L/R294C/V109D/Y74E),Km,[2],180 ± 30 µM
same,Vmax,[2],3180 µmol/min/mg
same,kcat,[2],2410 ± 154 s⁻¹
same,kcat/Km,[2],1.34e+07 ± 1.54e+06 M⁻¹ s⁻¹
Yersinia intermedia phytase APPAmut4 (SEQ ID NO: 1) mutant G101C/V116C (Yersinia intermedia; A346L/G124C/M382L/V109D/V139C/Y74E),Km,[3],200 ± 30 µM
same,Vmax,[3],2930 µmol/min/mg
same,kcat,[3],2230 ± 119 s⁻¹
same,kcat/Km,[3],1.11e+07 ± 1.13e+06 M⁻¹ s⁻¹
Yersinia intermedia phytase APPAmut4 (SEQ ID NO: 1) mutant G365D (Yersinia intermedia; A346L/G388D/M382L/V109D/Y74E),Km,[4],140 ± 20 µM
same,Vmax,[4],2410 µmol/min/mg
same,kcat,[4],1830 ± 58 s⁻¹
same,kcat/Km,[4],1.32e+07 ± 1.15e+06 M⁻¹ s⁻¹
Yersinia intermedia phytase APPAmut4 (SEQ ID NO: 1) mutant E282L (Yersinia intermedia; A346L/E305L/M382L/V109D/Y74E),Km,[5],150 ± 20 µM
same,Vmax,[5],2300 µmol/min/mg
same,kcat,[5],1750 ± 67 s⁻¹
same,kcat/Km,[5],1.13e+07 ± 967000 M⁻¹ s⁻¹
Yersinia intermedia phytase APPAmut4 (SEQ ID NO: 1) mutant R353C/L401C (Yersinia intermedia; A346L/L424C/M382L/R376C/V109D/Y74E),Km,[6],200 ± 20 µM
same,Vmax,[6],3400 µmol/min/mg
same,kcat,[6],2580 ± 124 s⁻¹
same,kcat/Km,[6],1.29e+07 ± 955000 M⁻¹ s⁻¹
"Yersinia intermedia phytase APPAmut4 (parent), SEQ ID NO: 1 (Yersinia intermedia; A346L/M382L/V109D/Y74E)",Km,[7],140 ± 30 µM
same,Vmax,[7],2270 µmol/min/mg
same,kcat,[7],1720 ± 72 s⁻¹
same,kcat/Km,[7],1.23e+07 ± 1.58e+06 M⁻¹ s⁻¹
Yersinia intermedia phytase APPAmut4 (SEQ ID NO: 1) mutant G65R (Yersinia intermedia; A346L/G88R/M382L/V109D/Y74E),Km,[8],220 ± 40 µM
same,Vmax,[8],2630 µmol/min/mg
same,kcat,[8],2000 ± 77 s⁻¹
same,kcat/Km,[8],9.01e+06 ± 992000 M⁻¹ s⁻¹
O=P(O)(O)O[C@H]1[C@H](OP(=O)(O)O)[C@@H](OP(=O)(O)O)[C@H](OP(=O)(O)O)[C@@H](OP(=O)(O)O)[C@H]1OP(=O)(O)O [sodium phytate],kcat/Km,[9],1.2322e+07 M⁻¹ s⁻¹
same,kcat/Km,[10],1.0823e+07 M⁻¹ s⁻¹
same,kcat/Km,[11],9.009e+06 M⁻¹ s⁻¹
Yersinia intermedia phytase APPAmut4 (SEQ ID NO: 1) mutant A147C/Y268C (Yersinia intermedia; A170C/A346L/M382L/V109D/Y291C/Y74E),Km,[12],220 ± 30 µM
same,Vmax,[12],3140 µmol/min/mg
same,kcat,[12],2380 ± 124 s⁻¹
same,kcat/Km,[12],1.08e+07 ± 1.02e+06 M⁻¹ s⁻¹
